In paper PMC4613707:

How the values were obtained:
[1] = target: FLAG–mRFP–TSP-5-1C (human); experiment: SDS/PAGE under non-reducing and reducing conditions with immunoblot; mRFP-tagged proteins collected with RFP-Trap_A beads from conditioned media of transfected COS7 cells, eluted by boiling in SDS sample buffer with or without 100 mM DTT; immunoblot for RFP (and FLAG, result not shown); oligomers formed in the cells
FLAG–TSP-5-1C (human) = experiment: SDS/PAGE under non-reducing and reducing conditions with immunoblot; FLAG-tagged proteins immunoprecipitated with anti-FLAG M2 on rProtein G agarose from conditioned media of transfected COS7 cells, washed in Tris-buffered saline with 2 mM CaCl2, eluted by boiling in SDS sample buffer with or without 100 mM DTT; oligomers formed in the cells
FLAG–TSP5 (human) = FLAG–TSP5 (human) (UniProt P49747); experiment: as above

Sequence of FLAG–TSP5, P49747 21-757 (natural protein; other documents disagree on this pair) (P49747 21-757): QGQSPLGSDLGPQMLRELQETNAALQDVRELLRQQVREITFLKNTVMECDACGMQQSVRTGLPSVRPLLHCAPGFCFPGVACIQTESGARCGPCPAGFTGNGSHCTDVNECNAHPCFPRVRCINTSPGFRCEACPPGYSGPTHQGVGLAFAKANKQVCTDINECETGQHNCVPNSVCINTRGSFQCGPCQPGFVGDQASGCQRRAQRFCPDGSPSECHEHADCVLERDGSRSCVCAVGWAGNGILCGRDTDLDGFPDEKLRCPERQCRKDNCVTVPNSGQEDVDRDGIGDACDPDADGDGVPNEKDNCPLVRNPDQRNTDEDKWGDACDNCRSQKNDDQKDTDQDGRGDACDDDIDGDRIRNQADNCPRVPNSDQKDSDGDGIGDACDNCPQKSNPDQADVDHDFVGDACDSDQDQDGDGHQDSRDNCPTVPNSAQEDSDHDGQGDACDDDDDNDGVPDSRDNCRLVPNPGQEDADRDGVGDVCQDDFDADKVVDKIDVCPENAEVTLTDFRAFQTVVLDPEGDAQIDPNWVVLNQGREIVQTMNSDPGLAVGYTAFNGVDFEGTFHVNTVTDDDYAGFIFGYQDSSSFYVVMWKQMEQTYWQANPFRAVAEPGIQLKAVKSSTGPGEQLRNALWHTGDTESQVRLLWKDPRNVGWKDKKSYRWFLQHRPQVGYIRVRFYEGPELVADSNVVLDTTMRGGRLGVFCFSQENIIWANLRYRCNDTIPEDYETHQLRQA

FLAG–mRFP–TSP-5-1C
stoichiometry N [1]: 5

FLAG–TSP-5-1C
stoichiometry N (FLAG–TSP-5-1C (human)): 5

FLAG–TSP5, P49747 21-757 (natural protein; other documents disagree on this pair)
stoichiometry N (FLAG–TSP5 (human)): 5
